Experimental data as given in article PMC12088426, “Activity and structure of human (d)CTP deaminase CDADC1” (Proceedings of the National Academy of Sciences of the …, 2025).
Changes are numbered by the printed parent chain. Names may count otherwise. “And” between values parts separate entries of the source, which are not always exact repeats. Equal entries are not always repeated.

Legend:
CDADC1 (NYD-SP15) = molecular target: T1, CDADC1 (NYD-SP15) (Homo sapiens, UniProt Q9BWV3, E400A); assay: cryo-EM structure of complex; type: binding; conditions: hexamer, catalytically inactive variant
T1 construct: codon-optimized gene, E. coli BL21-CodonPlus(DE3)-RIL; homotrimer / hexamer (dimer of trimers), hexamer is the active form
T1 sequence (Q9BWV3 1-514 E400A): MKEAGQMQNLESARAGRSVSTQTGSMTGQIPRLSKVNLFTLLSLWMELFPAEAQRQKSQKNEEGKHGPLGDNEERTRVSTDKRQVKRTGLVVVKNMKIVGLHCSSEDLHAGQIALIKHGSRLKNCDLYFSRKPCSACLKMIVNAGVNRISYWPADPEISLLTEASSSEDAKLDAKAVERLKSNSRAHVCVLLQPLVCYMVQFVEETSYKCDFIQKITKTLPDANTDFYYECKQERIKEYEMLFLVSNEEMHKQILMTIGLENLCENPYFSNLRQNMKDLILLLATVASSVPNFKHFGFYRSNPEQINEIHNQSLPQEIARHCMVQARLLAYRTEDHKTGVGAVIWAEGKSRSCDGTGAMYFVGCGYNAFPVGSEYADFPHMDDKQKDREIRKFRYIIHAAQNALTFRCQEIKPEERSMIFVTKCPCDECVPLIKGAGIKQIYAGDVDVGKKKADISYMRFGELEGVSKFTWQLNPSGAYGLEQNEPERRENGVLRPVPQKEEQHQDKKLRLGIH

[1] = substrate: Nc1ccn([C@@H]2O[C@H](COP(=O)(O)OP(=O)(O)OP(=O)(O)O)[C@@H](O)[C@H]2O)c(=O)n1; assay: fluorescent ammonia detection, initial velocities, allosteric sigmoidal fit; type: biochemical, Homo sapiens; conditions: Low Salt Reaction Buffer; 0.3 uM CDADC1 (monomer); Hill coefficient 1.6
[2] = substrate: Nc1ccn([C@H]2C[C@H](O)[C@@H](COP(=O)(O)O)O2)c(=O)n1; assay: as above; type: biochemical, Homo sapiens; conditions: Low Salt Reaction Buffer; 0.3 uM CDADC1 (monomer); Hill coefficient 1.8
[3] = substrate: Nc1ccn([C@H]2C[C@H](O)[C@@H](COP(=O)(O)OP(=O)(O)OP(=O)(O)O)O2)c(=O)n1; assay: as above; type: biochemical, Homo sapiens; conditions: Low Salt Reaction Buffer; 0.2 uM CDADC1 (monomer); Hill coefficient 1.22
[4] = molecular target: the molecule itself; assay: mass photometry; Refeyn TwoMP; CDADC1 at ~0.06 uM (monomer), room temperature, 10 min, without a ligand or with 1 mM dCTP (dCTP stabilised against dissociation); hexamers dissociated to trimers and monomers over time; hexamer = dimer of trimers
[5] = molecular target: the molecule itself; assay: cryo-EM structure; single-particle cryo-EM of CDADC1 E400A alone, with dCTP and with 5-methyl-dCTP; C3 (trimer) or D3 (dimer of trimers) symmetry imposed; maps 2.4 to 3.0 A

With `Cc1cn([C@H]2C[C@H](O)[C@@H](COP(=O)(O)OP(=O)(O)OP(=O)(O)O)O2)c(=O)nc1N` [5mdCTP] the “cryo-EM structure of complex” value (CDADC1 (NYD-SP15); CTD active site, less clear map than dCTP) was “a hexamer with bound 5mdCTP (PDB: 9HFT)”.

In the case of `Nc1ccn([C@H]2C[C@H](O)[C@@H](COP(=O)(O)OP(=O)(O)OP(=O)(O)O)O2)c(=O)n1` [dCTP], the “cryo-EM structure of complex” value (CDADC1 (NYD-SP15); one dCTP per protomer in CTD active site, N4 coordinates Zn2+) is reported as “a hexamer with bound dCTP (PDB: 9HFS)”.

B1: CDADC1 (NYD-SP15) (Homo sapiens) (protein)
chain: T1 sequence (Q9BWV3 1-514 E400A) with A400E
notes: codon-optimized gene, E. coli BL21-CodonPlus(DE3)-RIL; homotrimer / hexamer (dimer of trimers), hexamer is the active form
B1 showed a K0.5 [1] of 0.7 mM, a kcat [1] of 5.0 s⁻¹ and a K0.5 [2] of 5 mM. It also gave a kcat [2] of 8.5 s⁻¹, a K0.5 [3] of 0.2 mM and a kcat [3] of 3.5 s⁻¹.

B2: human CDADC1 (enzyme, UniProt Q9BWV3 1-514, looked up)
chain: T1 sequence (Q9BWV3 1-514 E400A) with A400E
notes: CDADC1 (NYD-SP15), human, 514 residues, expressed from a codon-optimized gene; Complete methods are in the SI Appendix; also called NYD-SP15; source: E. coli BL21-CodonPlus (DE3)-RIL, purified (His-trap, Heparin HP, Superdex 200 Increase)
B2 was tested, and the “stoichiometry N” value [4] was 3 and 6.

B3: human CDADC1 E400A variant (enzyme, UniProt Q9BWV3 1-514, looked up)
chain: T1 sequence (Q9BWV3 1-514 E400A)
notes: CDADC1 (NYD-SP15), human, 514 residues, catalytic glutamate E400 changed to alanine; expressed from a codon-optimized gene; This variant was used for all cryo-EM datasets; source: E. coli BL21-CodonPlus (DE3)-RIL, purified (His-trap, Heparin HP, Superdex 200 Increase)
B3 was tested, and the “stoichiometry N” value [5] was 3 and 6.
